Experimental data reported in PMC8041205.

What was measured:
[1] = target: BSA; assay: SPR; conditions: natural protein
[2] = target: commercially available recombinant MyD88 (UniProt Q99836); assay: ITC; 1 uM rTcpC in PBS in the titration pool, 0.1 uM UBE2D1 or rMyD88 in PBS in the sample pool; VP-ITC microcalorimeter
Chain of commercially available recombinant MyD88 (Q99836 whole entry): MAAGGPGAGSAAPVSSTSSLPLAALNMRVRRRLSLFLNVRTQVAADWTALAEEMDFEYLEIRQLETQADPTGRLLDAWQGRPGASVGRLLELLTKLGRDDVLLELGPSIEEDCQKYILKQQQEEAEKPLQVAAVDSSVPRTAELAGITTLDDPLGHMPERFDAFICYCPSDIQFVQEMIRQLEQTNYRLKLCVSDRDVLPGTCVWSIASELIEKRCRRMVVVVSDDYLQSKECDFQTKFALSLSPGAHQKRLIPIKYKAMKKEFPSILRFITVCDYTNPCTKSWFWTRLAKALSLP

Chain of recombinant TcpC (Toll/interleukin-1 receptor domain-containing protein encoded by E. coli) (from UniProt A0A0H2V8B5 1-307) (natural protein; other documents disagree on this pair) (A0A0H2V8B5 whole entry, the tested form may be a part): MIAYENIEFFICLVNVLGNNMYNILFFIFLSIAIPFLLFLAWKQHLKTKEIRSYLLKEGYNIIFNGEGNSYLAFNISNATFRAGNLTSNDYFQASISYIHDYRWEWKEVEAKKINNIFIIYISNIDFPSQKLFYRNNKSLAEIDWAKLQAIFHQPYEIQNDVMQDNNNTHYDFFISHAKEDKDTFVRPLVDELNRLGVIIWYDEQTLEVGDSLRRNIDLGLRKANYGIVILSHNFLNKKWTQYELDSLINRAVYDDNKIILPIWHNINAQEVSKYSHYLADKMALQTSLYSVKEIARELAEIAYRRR
Chain of recombinant TcpC (Toll/interleukin-1 receptor domain-containing protein encoded by E. coli) (from UniProt A0A0H2V8B5 1-307) (A0A0H2V8B5 whole entry, the tested form may be a part): as above

| Substance | Kd [1] | Kd [2] |
| --- | --- | --- |
| recombinant TcpC (Toll/interleukin-1 receptor domain-containing protein encoded by E. coli) (from UniProt A0A0H2V8B5 1-307) | > 10 mM |  |
| recombinant TcpC (Toll/interleukin-1 receptor domain-containing protein encoded by E. coli) (from UniProt A0A0H2V8B5 1-307) (natural protein; other documents disagree on this pair) |  | 539 nM |
